From US10766940 (GOVERNORS OF THE UNIVERSITY OF ALBERTA, dated 2020)
Positions of bridges follow the written chain, without caps; N, C: chain ends. No end group written: not given here.

B1: peptide fragment R10 of AC253 (peptide)
peptide: RLQTYPRTNTGS
modifications: not fully specified (N-terminus, C-terminus)
notes: 12-residue fragment of AC253
B2: cyclized AC253 (peptide)
peptide: CLGRLSQELHRLQTYPRTNTGSNTYC-NH2
modifications: disulfide 1-26; also: flanking Cys said to be D-Cys in one passage
notes: AC253 with one cysteine added at each terminus, cyclized by a disulfide; cAMP assay used the unlabelled peptide; also called cAC253; cyclic AC253
B3: AC253 (peptide)
peptide: Ac-LGRLSQELHRLQTYPRTNTGSNTY-NH2
modifications: not fully specified; printed as Ac-LGRLSQELHRLQTYPRTNTGSNTY; also: labelled form for binding: Cy5/Cy5.5 on extra N-terminal beta-alanine spacer
notes: Synthetic 24-residue peptide; cAMP assay used the unlabelled peptide; also called linear AC253; Cy5-AC253

Tests used:
[1] = biological target: T1, AMY1 receptor (heterodimeric complex of the calcitonin receptor and RAMP1) (UniProt P30988 25-474; O60894 27-148); test: flow cytometry cell uptake, AMY1 transfected cells; reference other fragments
T1 construct: whole, on cells; also called amylin receptor subtype 1
T1 sequence (O60894 27-148, one chain of several): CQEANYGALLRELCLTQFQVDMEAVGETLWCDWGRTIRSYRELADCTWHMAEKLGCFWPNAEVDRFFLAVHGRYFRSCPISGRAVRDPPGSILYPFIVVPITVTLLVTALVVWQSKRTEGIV

[2] = biological target: T2, AMY3 receptor (heterodimeric complex of the calcitonin receptor and RAMP3) (UniProt P30988 25-474; O60896 24-148); test: flow cytometry, Cy5-labelled peptide 5 µM, AMY3-HEK cells; reference AC253
T2 construct: whole, on cells; also called amylin receptor subtype 3; amylin receptor 3 subtype
T2 sequence (looked up) 1: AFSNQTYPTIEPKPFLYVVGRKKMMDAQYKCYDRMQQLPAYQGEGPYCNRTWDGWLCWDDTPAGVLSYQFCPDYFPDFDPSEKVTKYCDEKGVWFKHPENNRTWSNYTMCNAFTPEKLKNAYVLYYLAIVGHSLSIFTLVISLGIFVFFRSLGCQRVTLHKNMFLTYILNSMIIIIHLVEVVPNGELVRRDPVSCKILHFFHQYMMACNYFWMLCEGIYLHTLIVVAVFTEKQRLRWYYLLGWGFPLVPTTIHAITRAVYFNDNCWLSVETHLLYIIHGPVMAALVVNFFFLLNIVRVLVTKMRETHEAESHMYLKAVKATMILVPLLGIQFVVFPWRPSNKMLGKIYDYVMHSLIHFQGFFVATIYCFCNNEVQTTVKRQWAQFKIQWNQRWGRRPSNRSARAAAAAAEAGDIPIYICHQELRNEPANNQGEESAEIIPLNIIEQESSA
T2 sequence (looked up) 2: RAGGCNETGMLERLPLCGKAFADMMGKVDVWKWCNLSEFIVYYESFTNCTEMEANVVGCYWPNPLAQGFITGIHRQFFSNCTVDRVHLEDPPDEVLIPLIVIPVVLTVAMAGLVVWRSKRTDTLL
Protocol: (§1) d) For flow cytometry studies, AMY3-293 cells were used to determine cell binding and uptake and binding of Cy5-AC253, and Cy5-cAC253 peptides. Cell were plated at a density of 1.5 ×10^5 cells/well and cultured overnight in 12-well plates at 37° C. Cy5 labelled peptides (5 μM) were added and incubated for 1 hour at 37° C. in serum free media. The culture media was discarded, and cell monolayers were washed with PBS containing 2 mM EDTA and 0.5% BSA adjusted to pH 7.4 at 37° C. Cells were washed again with cold buffer and incubated with 0.25% trypsin to remove cell surface-associated fluorophores. Cells were dispersed in FACS solution (10% FBS in PBS) and analyzed using a FACSCanto II flow cytometer (BD Biosciences, USA) selecting a detection window between 720 and 840 nm. Fluorescence histograms and dot plots were generated using the data were processed with FLOWJO software (Tree Star, Inc, USA). At least 10,000 gated events per sample were analyzed. The experiment was repeated with different peptide concentration ranging from 0.5-10 μM, and mean fluorescence intensity of peptides was extrapolated. To further study the cell uptake mechanism, cells were preincubated with cytochalasin D (cytoD, […]) for 30 minutes, and the experiment was repeated as above. […]

[3] = biological target: T2, AMY3 receptor (heterodimeric complex of …); test: flow cytometry, Cy5.5-labelled peptide 5 µM; wild type HEK293 against AMY3-HEK cells
[4] = biological target: T2, AMY3 receptor (heterodimeric complex of …); test: flow cytometry, dose-dependent binding of Cy5-labelled peptide (0.5-10 µM) to AMY3-HEK cells
Protocol: as §1

[5] = biological target: T2, AMY3 receptor (heterodimeric complex of …); test: cell-based or functional assay
[6] = biological target: amylin receptor in mouse brain (mouse, UniProt Q60755 42-533); test: cell-based or functional assay
amylin receptor in mouse brain, sequence (Q60755 42-533): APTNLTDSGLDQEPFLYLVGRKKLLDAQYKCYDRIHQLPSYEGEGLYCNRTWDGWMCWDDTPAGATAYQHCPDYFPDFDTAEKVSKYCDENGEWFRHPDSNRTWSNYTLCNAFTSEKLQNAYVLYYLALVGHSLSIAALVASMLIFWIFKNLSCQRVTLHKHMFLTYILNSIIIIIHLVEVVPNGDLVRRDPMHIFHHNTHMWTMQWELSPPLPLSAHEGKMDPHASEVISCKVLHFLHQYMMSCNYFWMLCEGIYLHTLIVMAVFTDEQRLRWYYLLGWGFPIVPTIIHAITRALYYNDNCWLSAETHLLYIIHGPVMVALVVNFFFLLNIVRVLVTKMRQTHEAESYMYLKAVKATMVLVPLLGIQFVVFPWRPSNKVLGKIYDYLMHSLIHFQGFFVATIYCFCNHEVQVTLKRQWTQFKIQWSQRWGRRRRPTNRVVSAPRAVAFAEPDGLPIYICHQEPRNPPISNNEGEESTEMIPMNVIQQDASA

Row | Binder | fold increase in specific binding compared to other fragments [1] [fold] | fold binding and uptake compared to AC253 [2] [fold] | fold decrease in binding and uptake in wild type HEK293 cells compared to AMY3-HEK cells [3] [fold] | Kd [4] [nM] | IC50 for inhibition of hAmylin evoked cAMP increase in AMY3-HEK cells [5] [nM] | fold potency versus AC253 in inhibiting AMY3 receptor activity (cAMP) [5] [fold] | reduction in brain fluorescence after ip injection of Cy5-cAC253 mixed with 5-fold excess of unlabeled cAC253 (in vivo competition, ex vivo NIRF imaging) [6] [%]
1 | B1 | 3 |  |  |  |  |  | 
2 | B2 |  | 3 | 10 | 1450 | ~300 | 3 | 75
3 | B3 |  |  | 10 |  | ~850 |  | 
